From ChEMBL document CHEMBL4321793, “Can Cysteine Protease Cross-Class Inhibitors Achieve Selectivity?” (J Med Chem, 2019)

What was measured:
[1] = test system: N=C(N)NCCC[C@H](NC(=O)[C@H](Cc1ccncc1)NC(=O)OCc1ccccc1)C(=O)Nc1ccc2ccc(=O)oc2c1; assay: (§1) Inhibition of human cathepsin B assessed as ratio of Kcat/Km using Z-Phe-Arg-MCA as substrate by spectrofluorometric method
[2] = test system: N=C(N)NCCC[C@H](NC(=O)OCc1ccccc1)C(=O)N[C@@H](CCCNC(=N)N)C(=O)Nc1ccc2ccc(=O)oc2c1; assay: as §1
[3] = test system: N=C(N)NCCC[C@H](NC(=O)[C@H](Cc1ccccc1)NC(=O)OCc1ccccc1)C(=O)Nc1ccc2ccc(=O)oc2c1; assay: as §1
[4] = test system: N=C(N)NCCC[C@H](NC(=O)[C@H](Cc1ccc(NC(=N)N)cc1)NC(=O)OCc1ccccc1)C(=O)Nc1ccc2ccc(=O)oc2c1; assay: as §1

Cathepsin B (Homo sapiens)
kcat/Km [1]: 742000 M⁻¹ s⁻¹
kcat/Km [2]: 554000 M⁻¹ s⁻¹
kcat/Km [3]: 2.32e+06 M⁻¹ s⁻¹
kcat/Km [4]: 1.57e+06 M⁻¹ s⁻¹
